According to patent US20210332135A1 (ANTIBODY BIOPHARM, published 2021):

Legend:
[1] = biological target: T1, recombinant PD-L1 extracellur domain protein (UniProt Q9NZQ7 19-238, limits assumed); experiment: ELISA
T1 construct: extracellular domain; ELISA antigen

[2] = biological target: T2, recombinant CD47 extracellur domain protein (UniProt Q08722 19-139, limits assumed); experiment: ELISA
T2 construct: extracellular domain; ELISA antigen

[3] = biological target: T3, PD-L1 and CD47 double positive CHO cell pool (UniProt Q9NZQ7 19-290; Q08722 19-323, limits assumed); experiment: flow cytometry, double positive against single positive CHO cell pools
T3 construct: whole, on cells; Two separate membrane proteins on one cell, not a complex; also called CD47 and PD-L1 double positive cells; double targets positive CHO cell
T3 sequence (Q9NZQ7 19-290 limits assumed, chain 1 of 2): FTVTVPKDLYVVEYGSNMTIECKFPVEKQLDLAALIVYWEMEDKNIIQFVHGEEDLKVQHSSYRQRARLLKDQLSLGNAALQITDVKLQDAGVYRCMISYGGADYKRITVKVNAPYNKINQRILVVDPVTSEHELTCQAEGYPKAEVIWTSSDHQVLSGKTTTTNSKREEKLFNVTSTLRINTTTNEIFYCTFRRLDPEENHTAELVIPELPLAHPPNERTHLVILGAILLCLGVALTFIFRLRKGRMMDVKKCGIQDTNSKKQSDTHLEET
T3 sequence (Q08722 19-323 limits assumed, chain 2 of 2): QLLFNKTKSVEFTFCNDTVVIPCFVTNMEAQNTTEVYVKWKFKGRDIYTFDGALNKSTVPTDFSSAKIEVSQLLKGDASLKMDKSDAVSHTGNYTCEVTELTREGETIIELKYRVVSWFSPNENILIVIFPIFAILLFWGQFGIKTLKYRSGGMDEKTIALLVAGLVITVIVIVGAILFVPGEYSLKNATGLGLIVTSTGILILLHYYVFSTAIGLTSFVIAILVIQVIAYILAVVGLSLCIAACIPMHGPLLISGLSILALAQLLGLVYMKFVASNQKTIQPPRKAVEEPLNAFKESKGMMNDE

[4] = biological target: T4, recombinant HER2 extracellur domain protein (UniProt P04626 23-652); experiment: ELISA
T4 construct: extracellular domain; ELISA antigen

[5] = biological target: T5, HER2 and CD47 double positive CHO cell pool (UniProt P04626 23-1255; Q08722 19-323, limits assumed); experiment: flow cytometry, double positive against single positive CHO cell pools
T5 construct: whole, on cells; Two separate membrane proteins on one cell, not a complex; also called CD47+HER2+ double positive cells; double targets positive CHO cell

T2 sequence (Q08722 19-139 limits assumed): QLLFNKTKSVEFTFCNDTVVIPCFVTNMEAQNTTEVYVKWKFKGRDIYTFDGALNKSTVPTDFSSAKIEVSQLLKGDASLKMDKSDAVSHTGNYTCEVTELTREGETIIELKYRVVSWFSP
T1 sequence (Q9NZQ7 19-238 limits assumed): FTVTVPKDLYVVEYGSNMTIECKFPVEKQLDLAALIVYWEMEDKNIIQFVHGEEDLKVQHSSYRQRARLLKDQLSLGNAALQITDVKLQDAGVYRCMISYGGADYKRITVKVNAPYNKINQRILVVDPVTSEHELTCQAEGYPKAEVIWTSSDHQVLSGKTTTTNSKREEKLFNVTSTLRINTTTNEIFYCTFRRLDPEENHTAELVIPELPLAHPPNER

binding acitivity [1]	binding acitivity [2]	fold stronger staining than on the single target positive cells [3]	binding acitivity [4]	fold stronger staining than on the single target positive cells [5]	Binder
> 100 nM	> 100 nM	~10 fold			AbD036, bi-specific GCT Ab against PD-L1 and CD47 (bispecific antibody, human IgG1, kappa, L234A L235A, SIRPa domain on IgG1 heavy chain, PD-1 IgV domain on kappa chain; also called ABP336) heavy: not shown light: DSPDRPWNPPTFSPALLVVTEGDNATFTCSFSNTSESFVLNWYRMSPSNQTDKLAAFPEDRSQPGQDCRFRVTQLPNGRDFHMSVVRARRNDSGTYLCGAISRAPKAQIKESLRAELRVTERRAEVSSRTVAAPSVFIFPPSDEQLKSGTASVVCLLNNFYPREAKVQWKVDNALQSGNSQESVTEQDSKDSTYSLSSTLTLSKADYEKHKVYACEVTHQGLSSPVTKSFNRGEC
> 100 nM	> 100 nM	~10 fold			AbD037, bi-specific GCT Ab against PD-L1 and CD47 (bispecific antibody, human IgG1, kappa, L234A L235A, SIRPa domain on IgG1 heavy chain, PD-1 IgV domain on kappa chain; Parents named as P048 and S007; also called ABP336) heavy: not shown light: DSPDRPWNPPTFSPALLVVTEGDNATFTCSFSNTSESFVLNWYRMSPSNQTDKLAAFPEDRSQPGQDCRFRVTQLPNGRDFHMSVVRARRNDSGTYLCGAISLAPKAQIKESLRAELRVTERRAEVSSRTVAAPSVFIFPPSDEQLKSGTASVVCLLNNFYPREAKVQWKVDNALQSGNSQESVTEQDSKDSTYSLSSTLTLSKADYEKHKVYACEVTHQGLSSPVTKSFNRGEC
	> 100 nM		~100 nM	~100 fold	AbD068-1, bi-specific GCT Ab against HER2 and CD47 (bispecific antibody, human IgG1, kappa, V domains shown, Anti-HER2 single domain on IgG1 heavy chain, SIRPa domain on kappa chain; Fc of IgG1 wild type; Parents named as H16 (H016) and S007; also called ABP366 (AbD066 and AbD068-1)) VH: QVQLVQSGGGLVQAGGSLRLSCAASGRTFSSYAMAWFRQAPGKEREFVAAISWSGANIYVADSVKGRFTISRDNAKDTVYLQMNSLKPEDTAVYYCAVKLGFAPVEERQYDYWGQGTQVTVSS VL: not shown
	> 100 nM				AbD066, bi-specific GCT Ab against HER2 and CD47 (bispecific antibody, V domains shown, Anti-HER2 single domain on IgG1 heavy chain, SIRPa domain on kappa chain; Fc of IgG1 wild type; Parents named as H069 and S012; also called ABP366 (AbD066 and AbD068-1)) VH: EVQLVESGGGLVQPGGSLRLSCAASGFNIKDTYIHWVRQAPGKEREWVARIYPTNGYTRYADSVKGRFTISRDNAKDTVYLQMNSLRAEDTAVYYCSRWGGDGFYAMDYWGQGTLVTVSS VL: ELQVIQPDKSVSVAAGESAILHCTVTSLIPVGPIQWFRGAGPARELIYNQKEGHFPRVTTVSESTKRNNMDFSIRIGNITPADAGTYYCVKFRKGSPDDVEFKSGAGTELSVRA
